Experimental data taken from the DeepSol protein solubility set.

Test: soluble on expression in E. coli; label from the status in PepcDB or PDB records

## MPIAQLLELWKKIEVEPMEIETTEEDLNLDVGPATEDTAEEGKSDSAACKTKVAGSVEEEGVVKEIDISHHVKEGFEKADPSQFELLKVLGQGSYGKVFLVRKVKGSDAGQLYAMKVLKKATLKVRDRVRSKMERDILAEVNHPFIVKLHYAFQTEGKLYLILDFLRGGDLFTRLSKEVMFTEEDVKFYLAELALALDHLHSLGIIYRDLKPENILLDEEGHIKITDFGLSKEAIDHDKRAYSFCGTIEYMAPEVVNRRGHTQSADWWSFGVLMFEMLTGSLPFQGKDRKETMALILKAKLGMPQFLSGEAQSLLRALFKRNPCNRLGAGIDGVEEIKRHPFFVTIDWNTLYRKEIKPPFKPAVGRPEDTFHFDPEFTARTPTDSPGVPPSANAHHLFRGFSFVASSLIQEPSQQDLHKVPVHPIVQQLHGNNIHFTDGYEIKEDIGVGSYSVCKRCVHKATDTEYAVKIIDKSKRDPSEEIEILLRYGQHPNIITLKDVYDDGKFVYLVMELMRGGELLDRILRQRYFSEREASDVLCTITKTMDYLHSQGVVHRDLKPSNILYRDESGSPESIRVCDFGFAKQLRAGNGLLMTPCYTANFVAPEVLKRQGYDAACDIWSLGILLYTMLAGFTPFANGPDDTPEEILARIGSGKYALSGGNWDSISDAAKDVVSKMLHVDPHQRLTAMQVLKHPWVVNREYLSPNQLSRQDVHLVKGAMAATYFALNRTPQAPRLEPVLSSNLAQRRGMKRLTSTRL
  soluble on expression in E. coli: soluble

## MAKWVYKFEEGNASMRNLLGGKGCNLAEMTILGMPIPQGFTVTTEACTEYYNSGKQITQEIQDQIFEAITWLEELNGKKFGDTEDPLLVSVRSGARASMPGMMDTILNLGLNDVAVEGFAKKTGNPRFAYDSYRRFIQMYSDVVMEVPKSHFEKIIDAMKEEKGVHFDTDLTADDLKELAEKFKAVYKEAMNGEEFPQEPKDQLMGAVKAVFRSWDNPEAIVYRRMNDIPGDWGTAVNVQTMVFGNKGETSGTGVAFTRNPDTGEKGIYGRYLINAQGEDVVAGVRTPQPITQLENDMPDCYKQFMDLAMKLEKHFRDMQDMEFTIEEGKLYFLQTRNGKRTAPAALQIACDLVDEGMITEEEAVVRIEAKSLDQLLHPTFNPAALKAGEVIGSALPASPGAAAGKVYFTADEAKAAHEKGERVILVRLETSPEDIEGMHAAEGILTVRGGMTSHAAVVARGMGTCCVSGCGEIKINEEAKTFELGGHTFAEGDYISLDGSTGKIYKGDIETQEASVSGSFERIMVWADKFRTLKVRTNADTPEDTLNAVKLGAEGIGLCRTEHMFFEADRIMKIRKMILSDSVEAREEALNELIPFQKGDFKAMYKALEGRPMTVRYLDPPLHEFVPHTEEEQAELAKNMGLTLAEVKAKVDELHEFNPMMGHRGCRLAVTYPEIAKMQTRAVMEAAIEVKEETGIDIVPEIMIPLVGEKKELKFVKDVVVEVAEQVKKEKGSDMQYHIGTMIEIPRAALTADAIAEEAEFFSFGTNDLTQMTFGFSRDDAGKFLDSYYKAKIYESDPFARLDQTGVGQLVEMAVKKGRQTRPGLKCGICGEHGGDPSSVEFCHKVGLNYVSCSPFRVPIARLAAAQAALNNK
  soluble on expression in E. coli: soluble

## NPIEMDYIRQIEDVNNRRMKALRPPHRKEVLKAREDDIKDRVQNWMSRENEPRLQRISSELLKEYDSTELVASLLQELVEANDEVE
  soluble on expression in E. coli: not soluble

## MHKSNNKIRQRIIIKLSGAGLTKENSQPFSNDFFETIINQLKVLKESYQVGIVIGGGNIIRGNNCQEFNIAEYHGHQLGIIATVVNGYFLKAKLDAHNLKSALLSAISCPSLAVQILSQQTIDKAFEENDFVIFSGGTGNPYFSTDTALALRAVQTKAVAILIGKNGVDGVYTADPKKDKNATFLPTLNYDHAIKNDLKIMDITAFTMCKENNLKIIIFNINAENALLDALNKKGRFTIIENNLEHHHHHH
  soluble on expression in E. coli: soluble

## AGVFNLEGFGPVSRAMGGTGAAFDIGPAAMMENPATLGLMGEGRHFSLGLDVVSTDIKVTNTATGETASSGNHGNNNGPYFAPQTAFVYRQGRYAFGAGIFAEGGLGTQYGGSSFLSRTSNGVDTGLDQFSRLLVLRVPFSAAYHVTDKLTVGASVDAVWTSLNLGTLLDVSQIGTLAGQGRVSGTLVPTLLGVPGLSGGYIDFSRNAPVGGGVQAWGIGGRLGLTYQVTPDTRIGAAYQAKTHVGDLTGQATLSAVSSVAGNIPLKGDVTVRNFQMPAQLTVGISHQFNDQLSVSADYQRVFWSSVMKDMNVGFVQSGSAANLDLSLPQNYRDISVFGIGAEYRYNAKWTFRGGFHYAQEAIPGNMLLAVVPATPTTSLTGGVSYAIGKNDVIDFALSVALRKTLDNASQPNTAVPISVTHSQVNAVIAYQKRFHHHHHH
  soluble on expression in E. coli: soluble

## MEKLRMNVQGRVQGVGFRYMTKMVADQLGVTGSVRNEDDGSVSITAIAPEDIMETFIKKIKDSPSPAGRVTYVDIQEDPLLEETEQFKVIQ
  soluble on expression in E. coli: soluble

## MGSDKIHHHHHHMKNRDWYTSLVSGLLFPLQERLKDHSTVSVRKALELSQWWNRERLENLQLLKLRHLLAEAEAHVPYYRRIFAEIGFKAAEVSSLADLARLPLLDKPAIRADTEALKSQKARSLRSFNTGGSSGEPLTFYIGRERVSHDVAAKWRATRWWDVDIGDPEMVVWGSPIELGAQDRLRMLRDRLLRTRLFPAFEMSEQKLDRFLGELRAAPPRMFFGYPSALSHIARHAQARGQRMDDLGINVAFVTSERLYDEQRQQISKTFGCPVANGYGGRDAGFIAHECPEGGMHITAEDIIVEIVDRQGVPLPCGEAGEIIVTHLSTAEFPFIRYRTGDIGILDDRICRCGRGLPLLREIQGRSTDFVVAQDGTVMHGLALIYILRELPQISHFKIIQESLNLIHIWVVSGAKLDREITAKIEEEFKARLGQSVEVLIEETTEIPAEKSGKFRYVISKIAGA
  soluble on expression in E. coli: not soluble

## MKKVKSIGLIETLGMVGVVEAADAALKAANVTLLGYEFNGAGYMVIKLTGDVAAVKAAVSSGAATAQKLGNLVAAHVIPRPDDQVIDTEICGKDNVPPFNGSDSEPEDGKPSGSSSEKESKESTETAVKASEPKPATATADKEEAPLEKAAPEAKDAKDTKEAPAKQASKPEAKTKSSKPTASEAKNASSPKTPEKQADSGKTAPAKTDGGNKPKSRK
  soluble on expression in E. coli: not soluble

## MDLFTRKDGTSIHYSTLGEGYPIVLIHTVLDNYSVFNKLAAELAKSFQVVLIDLRGHGYSDKPRHIEIKDFSDDIVELLKYLYIEEVAFVCHEMGGIIGADISVRYPEFTSSLTLVNPTSIEGELPEERLFRKYAHIIRNWDPEKQDKFLNKRKYYRPRKMNRFLKHVVDTNEISTKEEIQAVKEVFKNADISQTYRNVVVPTKIIAGEFGERTTRLEAKEVADLIQNADFEVYQESSAFPFVEEQERFVEDTAAFINKHHDEKHV
  soluble on expression in E. coli: not soluble

## MGSDKIHHHHHHMKCVVCGKNEAVEHGVCSQCLFDRANIENIGNVNIAICPKCGSVRIGKKWYREDYADHLLPLIMDEVKCSDPEAKISGDPKSVYFDESNRNLVLKVNITRDHMDPKVQTVSVPYSVNYISCPTCNKLTGSYFEATIQLRTVSTKYDEILSEVLDSIEKIMEKRRKMDASSFISKIERKPEGVDIYLGKKGDGDLVSSFILDHYFATLIVSKSLAGVKEGRKFFRFTYSLRILDAPEGAIVSVDKRKYILTAIRNRHIDVIDVETEERGRINRNVFFSNDGKIVTKEPQVKNFIVISRTEDESQIMDSQTFKIITIKGRAEGNEIRVFTYRGKYFI
  soluble on expression in E. coli: not soluble

## VALAATRAFYWIEAQSPDAATAFAQRVFDLYFSDRLDTASPEAVSRLGPEVGLEPEALLAGIADPALKETVRKIGEDAVARGIFGSPFFLVDDEPFWGWDRMEMMAEWIRTGGW
  soluble on expression in E. coli: not soluble

## MVGGGGVKFIEMDIRDKEAYELAKEWFDEVVVSIKFNEEVDKEKLREARKEYGKVAILLSNPKPSLVRDTVQKFKSYLIYVESNDLRVIRYSIEKGVDAIISPWVNRKDPGIDHVLAKLMVKKNVALGFSLRPLLYSNPYERANLLRFMMKAWKLVEKYKVRRFLTSSAQEKWDVRYPRDLISLGVVIGMEIPQAKASISMYPEIILKRLKY
  soluble on expression in E. coli: soluble

## QTQTVAIIGMGSRGLSILEQLIGMSRHADQQPLQIEVFDPQPPGSGLHSAQQPDYLMLNTMAGQLSAFSSAFPACEPAGWTFLQWCGAQDVRLDERGHVSTNGLGRPVAFGDFVPRALLGRYLQHSYRFLLQQCPAHVQVRHYAERVIKCRSRSDAPGFRLRSLTREMNVDALFLTVGHASSATELQDVGATVAIEGLGLTAMDTLASLTQGRGGRYVRDAGFAGWRYLPSGREPRVFMYSRSGLPFHARPHWYPTRHAALPRLFFTAVAIGDLRKQNGGGQLDFQADVLPLIKDEMRAVFYQTKVRLDAPRQLEAVQRTLREAVARPALFARLAEQWGEFDPEQWLTTQRWTGEAGTYGQWFVEWIKRDLALSRLGTAHSPIRQALEVWRDCRDLLRLVADRNGLTESSTLAFYDTWAGLGNRLVGGPQKERHEDLLALIDAGVVTVLAPMSDAQQADSRFDSVMAARVAPSGLSGNRSALLDDLREQGL
  soluble on expression in E. coli: not soluble

## SNAMSFIAIIPARYASTRLPGKPLADIAGKPMVVHVMERALASGADRVIVATDHPDVVKAVEAAGGEVCLTRADHQSGTERLAEVIEHYGFADDDIIVNVQGDEPLVPPVIIRQVADNLAACSAGMATLAVPIASSEEAFNPNAVKVVMDAQGYALYFSRATIPWERERFAQSKETIGDCFLRHIGIYAYRAGFIRRYVNWAPSQLEQIELLEQLRVLWYGEKIHVAVAKAVPAVGVDTQSDLDRVRAIMLNQ
  soluble on expression in E. coli: soluble

## MKIEEGKVVIWHAMQPNELEVFQSLAEEYMALCPEVEIVFEQKPNLEDALKAAIPTGQGPDLFIWAHDWIGKFAEAGLLEPIDEYVTEDLLNEFAPMAQDAMQYKGHYYALPFAAETVAIIYNKEMVSEPPKTFDEMKAIMEKYYDPANEKYGIAWPINAYFISAIAQAFGGYYFDDKTEQPGLDKPETIEGFKFFFTEIWPYMAPTGDYNTQQSIFLEGRAPMMVNGPWSINDVKKAGINFGVVPLPPIIKDGKEYWPRPYGGVKLIYFAAGIKNKDAAWKFAKWLTTSEESIKTLALELGYIPVLTKVLDDPEIKNDPVIYGFGQAVQHAYLMPKSPKMSAVWGGVDGAINEILQDPQNADIEGILKKYQQEILNNMQG
  soluble on expression in E. coli: soluble

## MSTQFKLPLASPLTHGREDFAVSPSNGEAVARLDAWPDWAEGRLVLVGPAGCGKSHLARAWAAAAGAVVVEAANPDAASVDLSALRGRAVLVEDADRRAQGAAVSDEALFHILNMAGVDGGTVLLTGRTAPLTWSAEVADLRSRLNALSVAEIAEPDDAVLEAVLRRAFAAAWWKPEPDLYPYLLARLPRSAAEAQAAAALLAEAAADGRRELTKALAREVLEGFEGDEGLEHHHHHH
  soluble on expression in E. coli: not soluble

## MTISLRRTGILKFGIGLVALTIAASVQAKTLVYCSEGSPEGFNPQLFTSGTTYDASSVPIYNRLVEFKIGTTEIEPSLAERWEVSEDGKTYTFYLRKGVKWQDNKDFKPTRDFNADDVIYSFMRQKDDKNPYHKVSGGSYEYFQGMGMGDLITNVVKVDDNTVRFELTRPESPFLADLAMDFASILSAEYADNMLKAGTPEKVDLNPIGTGPFQLQQYQKDSRILYKAFPGFWGTKPKIDRLVFSITPDASVRYAKLQKNECQIMPYPNPADIARMKEDKTINLMEQPGLNVGYLSFNIEKKPLDNLKVRQALTMAVNKDAIIDAVYQGAGQAAKNLIPPTMWGYNDDVKDYAYDPAKAKELLKEAGLPDGFSIDLWAMPVQRPYNPNARRMAEMIQSDWAKIGVKAKIVTYEWGEYLKRAKDGEHETVMMGWTGDNGDPDNFFATLFSCDAAKQGSNYSKWCYKPFEDLIQPARAEADHDKRVALYKQAQVVMNEQAPALIIAHSTVYEPVRKEVKGYVVDPLGKHHFDNVSLD
  soluble on expression in E. coli: not soluble

## ASEEDLAAATEKMQSMKGKKSQAAAALEAEQAKAEKRLSCLLKARTKLSFRVIRDGIKCHGGIHLKKQSEKAELDISVTNTAINNLPSDADIVITHKDLTDRAKAKLPNATHISVDNFLNSPKYDELIEKLKSNLIEREYCHASTRKGNIKLNQTVSSKEEAIKLAGQTLIDNGYVTEDYISKMFDREETSSTFMGNFIAIPHGTEEAKSEVLHSGISIIQIPEGVEYGEGNTAKVVFGIAGKNNEHLDILSNIAIICSEEETLNA
  soluble on expression in E. coli: not soluble
